Biological target: the molecule itself
Assay: non-reducing SDS-PAGE and immunoblot; 3T3-L1 adipocytes incubated with GluOC for 24 h; cell lysates prepared in the absence of 2-mercaptoethanol; immunoblot with antibodies to MLKL

B1: mixed-lineage kinase domain-like protein (MLKL) (natural protein, mouse (endogenous in 3T3-L1), UniProt Q9D2Y4 1-472, looked up)
chain: MDKLGQIIKLGQLIYEQCEKMKYCRKQCQRLGNRVHGLLQPLQRLQAQGKKNLPDDITAALGRFDEVLKEANQQIEKFSKKSHIWKFVSVGNDKILFHEVNEKLRDVWEELLLLLQVYHWNTVSDVSQPASWQQEDRQDAEEDGNENMKVILMQLQISVEEINKTLKQCSLKPTQEIPQDLQIKEIPKEHLGPPWTKLKTSKMSTIYRGEYHRSPVTIKVFNNPQAESVGIVRFTFNDEIKTMKKFDSPNILRIFGICIDQTVKPPEFSIVMEYCELGTLRELLDREKDLTMSVRSLLVLRAARGLYRLHHSETLHRNISSSSFLVAGGYQVKLAGFELSKTQNSISRTAKSTKAERSSSTIYVSPERLKNPFCLYDIKAEIYSFGIVLWEIATGKIPFEGCDSKKIRELVAEDKKQEPVGQDCPELLREIINECRAHEPSQRPSVDGRSLSGRERILERLSAVEESTDKKV
notes: mixed-lineage kinase domain-like protein (MLKL), endogenous in 3T3-L1 adipocytes treated with GluOC; High-dose GluOC induces phosphorylation of MLKL, printed as Thr357/Ser358; these numbers may be those of human MLKL although the cells are mouse; source: endogenous, 3T3-L1 adipocyte lysate
- stoichiometry N: 3
